Experimental findings from patent US20260242735A1 (UNIVERSIT T BASEL, published 2026) are described below.

Among the targets are human CD33 G249A (human, UniProt P20138 18-364); human CD33 V258A (human, UniProt P20138 18-364); human CD33 C276A (human, UniProt P20138 18-364); human CD33 A255S (human, UniProt P20138 18-364); human CD33 T303A (human, UniProt P20138 18-364); human CD33 T299A (human, UniProt P20138 18-364); human CD33 P301A (human, UniProt P20138 18-364); human CD33 L271A (human, UniProt P20138 18-364); human CD33 E252A (human, UniProt P20138 18-364); human CD33 L277A (human, UniProt P20138 18-364); human CD33 V294A (human, UniProt P20138 18-364); human CD33 R291A (human, UniProt P20138 18-364); human CD33 S314A (human, UniProt P20138 18-364); human CD33 F243A (human, UniProt P20138 18-364); human CD33 K309A (human, UniProt P20138 18-364); human CD33 T268A (human, UniProt P20138 18-364); human CD33 D298A (human, UniProt P20138 18-364); human CD33 D246A (human, UniProt P20138 18-364); human CD33 F279A (human, UniProt P20138 18-364); human CD33 P308A (human, UniProt P20138 18-364); human CD33 I262A (human, UniProt P20138 18-364).

Common to all, as to assay: alanine scan, flow cytometry, HEK293-T;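 further: antibody binding to each alanine-substituted CD33 mutant expressed transiently in HEK293-T, read as fluorescence minus background, mean of duplicates, relative to wild-type CD33 set as 100%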
Background: A flow cytometer gives signals particle by particle.

human CD33 S314A, sequence (P20138 18-364 S314A limits assumed): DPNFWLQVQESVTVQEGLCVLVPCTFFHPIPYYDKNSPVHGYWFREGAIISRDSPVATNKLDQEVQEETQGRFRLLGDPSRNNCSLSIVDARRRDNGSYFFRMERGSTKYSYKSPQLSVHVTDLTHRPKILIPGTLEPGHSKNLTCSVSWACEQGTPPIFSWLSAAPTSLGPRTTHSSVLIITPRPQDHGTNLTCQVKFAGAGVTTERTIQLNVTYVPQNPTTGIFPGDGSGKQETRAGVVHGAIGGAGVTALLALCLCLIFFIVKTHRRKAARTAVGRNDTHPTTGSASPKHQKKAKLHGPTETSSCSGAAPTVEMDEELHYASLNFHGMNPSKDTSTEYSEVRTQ
human CD33 E252A, sequence (P20138 18-364 E252A limits assumed): as the sequence (P20138 18-364 S314A limits assumed) above, with E235A, A297S counted along it
human CD33 D298A, sequence (P20138 18-364 D298A limits assumed): as the sequence (P20138 18-364 S314A limits assumed) above, with D281A, A297S counted along it
human CD33 T268A, sequence (P20138 18-364 T268A limits assumed): as the sequence (P20138 18-364 S314A limits assumed) above, with T251A, A297S counted along it
human CD33 F279A, sequence (P20138 18-364 F279A limits assumed): as the sequence (P20138 18-364 S314A limits assumed) above, with F262A, A297S counted along it
human CD33 G249A, sequence (P20138 18-364 G249A limits assumed): as the sequence (P20138 18-364 S314A limits assumed) above, with G232A, A297S counted along it
human CD33 K309A, sequence (P20138 18-364 K309A limits assumed): as the sequence (P20138 18-364 S314A limits assumed) above, with K292A, A297S counted along it
human CD33 P308A, sequence (P20138 18-364 P308A limits assumed): as the sequence (P20138 18-364 S314A limits assumed) above, with P291A, A297S counted along it
human CD33 L277A, sequence (P20138 18-364 L277A limits assumed): as the sequence (P20138 18-364 S314A limits assumed) above, with L260A, A297S counted along it
human CD33 I262A, sequence (P20138 18-364 I262A limits assumed): as the sequence (P20138 18-364 S314A limits assumed) above, with I245A, A297S counted along it
human CD33 R291A, sequence (P20138 18-364 R291A limits assumed): as the sequence (P20138 18-364 S314A limits assumed) above, with R274A, A297S counted along it
human CD33 T299A, sequence (P20138 18-364 T299A limits assumed): as the sequence (P20138 18-364 S314A limits assumed) above, with T282A, A297S counted along it
human CD33 A255S, sequence (P20138 18-364 A255S limits assumed): as the sequence (P20138 18-364 S314A limits assumed) above, with A238S, A297S counted along it
human CD33 D246A, sequence (P20138 18-364 D246A limits assumed): as the sequence (P20138 18-364 S314A limits assumed) above, with D229A, A297S counted along it
human CD33 C276A, sequence (P20138 18-364 C276A limits assumed): as the sequence (P20138 18-364 S314A limits assumed) above, with C259A, A297S counted along it
human CD33 T303A, sequence (P20138 18-364 T303A limits assumed): as the sequence (P20138 18-364 S314A limits assumed) above, with T286A, A297S counted along it
human CD33 V294A, sequence (P20138 18-364 V294A limits assumed): as the sequence (P20138 18-364 S314A limits assumed) above, with V277A, A297S counted along it
human CD33 P301A, sequence (P20138 18-364 P301A limits assumed): as the sequence (P20138 18-364 S314A limits assumed) above, with P284A, A297S counted along it
human CD33 V258A, sequence (P20138 18-364 V258A limits assumed): as the sequence (P20138 18-364 S314A limits assumed) above, with V241A, A297S counted along it
human CD33 L271A, sequence (P20138 18-364 L271A limits assumed): as the sequence (P20138 18-364 S314A limits assumed) above, with L254A, A297S counted along it
human CD33 F243A, sequence (P20138 18-364 F243A limits assumed): as the sequence (P20138 18-364 S314A limits assumed) above, with F226A, A297S counted along it

B1: Refmab #2 (antibody, V domains shown)
VH: QVQLVQSGAEVKKPGSSVKVSCKASGGTFSDYAISWVRQAPGQGLEWMGRIIPILGVADYAQKFQGRVTITADKSTRTAYMELSSLRSEDTAVYYCARNWADAFDIWGQGTMVTVSS
VL: DIQLTQSPSSLSASVGDRVTITCRASQGISSVLAWYQQKPGKAPKLLIYDASSLESGVPSRFSGSGSGTDFTLTISSLQPEDFATYYCQQFDSSITFGQGTKLEIK
notes: The alanine scan used IgG or Fab
In the case of B1, the “Mean % WT Binding” value stood at 127 % WT binding in the test with human CD33 G249A; 111 % WT binding in the test with human CD33 V258A; 103 % WT binding with human CD33 C276A; 109 % WT binding with human CD33 A255S; 96.7 % WT binding with human CD33 T303A; 96.3 % WT binding in the test with human CD33 T299A. For the same molecule, the “Mean % WT Binding” value was 91.8 % WT binding with human CD33 P301A; 113 % WT binding in the test with human CD33 L271A; 116 % WT binding with human CD33 E252A; 117 % WT binding with human CD33 L277A; 105 % WT binding in the test with human CD33 V294A; 122 % WT binding in the test with human CD33 R291A. The “Mean % WT Binding” value came out at 95.5 % WT binding with human CD33 S314A; 102 % WT binding with human CD33 F243A; 111 % WT binding in the test with human CD33 K309A; 107 % WT binding with human CD33 T268A; 81.5 % WT binding in the test with human CD33 D298A; 114 % WT binding in the test with human CD33 D246A. Moreover, the figures for the “Mean % WT Binding” value with human CD33 F279A, in the test with human CD33 P308A and with human CD33 I262A were 116 % WT binding, 89.7 % WT binding and 115 % WT binding, respectively.

B2: Refmab #3 (antibody, V domains shown)
VH: QVQLVQSGAEVKKPGSSVKVSCKASGYTFTDYNMHWVRQAPGQGLEWIGYIYPYNGGTGYNQKFKSKATITADESTNTAYMELSSLRSEDTAVYYCARGRPAMDYWGQGTLVTVSS
VL: DIQMTQSPSSLSASVGDRVTITCRASESVDNYGISFMNWFQQKPGKAPKLLIYAASNQGSGVPSRFSGSGSGTDFTLTISSLQPDDFATYYCQQSKEVPWTFGQGTKVEIK
notes: as for B1
Consider B2, for which the “Mean % WT Binding” value in the test with human CD33 G249A worked out at 132 % WT binding; in the test with human CD33 V258A, 106 % WT binding; in the test with human CD33 C276A, 115 % WT binding; with human CD33 A255S, 97.7 % WT binding; in the test with human CD33 T303A it was 72.7 % WT binding; in the test with human CD33 T299A, 85.6 % WT binding. Besides, the “Mean % WT Binding” value with human CD33 P301A was determined as 93.9 % WT binding; in the test with human CD33 L271A it was 135 % WT binding; with human CD33 E252A it was 96.3 % WT binding; with human CD33 L277A it was 81.9 % WT binding; with human CD33 V294A it was 95.8 % WT binding; with human CD33 R291A, 97.5 % WT binding. The “Mean % WT Binding” value was 139 % WT binding in the test with human CD33 S314A; 107 % WT binding in the test with human CD33 F243A; 92 % WT binding in the test with human CD33 K309A; 91.5 % WT binding with human CD33 T268A; 80.1 % WT binding with human CD33 D298A; 115 % WT binding with human CD33 D246A. Besides, the “Mean % WT Binding” value was determined as 138 % WT binding with human CD33 F279A, 82.8 % WT binding with human CD33 P308A and 130 % WT binding in the test with human CD33 I262A.

B3: Refmab #4 (antibody, V domains shown)
VH: QVQLVQSGAEVKKPGESVKVSCKASGYTFTNYGMNWVKQAPGQGLEWMGWINTYTGEPTYADKFQGRVTMTTDTSTSTAYMEIRNLGGDDTAVYYCARWSWSDGYYVYFDYWGQGTSVTVSS
VL: DIVMTQSPDSLTVSLGERTTINCKSSQSVLDSSTNKNSLAWYQQKPGQPPKLLLSWASTRESGIPDRFSGSGSGTDFTLTIDSPQPEDSATYYCQQSAHFPITFGQGTRLEIK
notes: as for B1
Turning to B3, the “Mean % WT Binding” value came to 111 % WT binding in the test with human CD33 G249A; 95.8 % WT binding with human CD33 V258A; 96.9 % WT binding with human CD33 C276A; 113 % WT binding with human CD33 A255S; 81.2 % WT binding in the test with human CD33 T303A; 92.9 % WT binding with human CD33 T299A. Further, the “Mean % WT Binding” value with human CD33 P301A came to 97.9 % WT binding; in the test with human CD33 L271A, 113 % WT binding; with human CD33 E252A, 115 % WT binding; with human CD33 L277A, 92.2 % WT binding; with human CD33 V294A, 97.8 % WT binding; in the test with human CD33 R291A, 102 % WT binding. The “Mean % WT Binding” value with human CD33 S314A worked out at 95.5 % WT binding; in the test with human CD33 F243A, 69.9 % WT binding; with human CD33 K309A, 99.9 % WT binding; with human CD33 T268A, 100 % WT binding; with human CD33 D298A, 83.9 % WT binding; with human CD33 D246A, 104 % WT binding. In addition, the “Mean % WT Binding” value with human CD33 F279A was 103 % WT binding; with human CD33 P308A it was 99.8 % WT binding; with human CD33 I262A it was 111 % WT binding.
